tested on: Escherichia coli TOP10; test: shrunken log2 fold change of peptide-encoding DNA abundance (4.5 h post-induction vs induction); higher = less antimicrobial activity (less host growth inhibition); details: time post-induction: 4.5 h; library: site-saturation at positions 5, 18, 19, 20
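Note: peptides expressed intracellularly from a pBAD plasmid library in pooled LB shake-flask culture, induced with 0.3% L-arabinose, DNA abundance read by NGS, three biological replicates, DESeq2 with apeglm shrinkage.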

RRIRARPPRLPRPRPRPGCKPRP and RRIRDRPPRLPRPRPRPICYPRP are within 0.2 log units of each other in “shrunken log2 fold change” value: 0.321 for the first, 0.204 for the second.

First: RRIRCRPPRLPRPRPRPWEVPRP
Second: RRIRERPPRLPRPRPRPYVFPRP
The “shrunken log2 fold change” value of the first is higher: 0.431 for the first, -0.575 for the second.

RRIRTRPPRLPRPRPRPYGMPRP and RRIRWRPPRLPRPRPRPMQVPRP are within 0.2 log units of each other in “shrunken log2 fold change” value: -0.0576 for the first, -0.0191 for the second.

RRIRYRPPRLPRPRPRPAKRPRP and RRIRDRPPRLPRPRPRPEWWPRP are within 0.2 log units of each other in “shrunken log2 fold change” value: 0.167 for the first, -0.00197 for the second.

RRIRQRPPRLPRPRPRPKMDPRP and RRIRHRPPRLPRPRPRPHQDPRP are within 0.2 log units of each other in “shrunken log2 fold change” value: -0.111 for the first, -0.249 for the second.

RRIRARPPRLPRPRPRPMEVPRP and RRIRERPPRLPRPRPRPYMEPRP are within 0.2 log units of each other in “shrunken log2 fold change” value: -0.0122 for the first, 0.0111 for the second.

RRIRFRPPRLPRPRPRPIAWPRP and RRIRYRPPRLPRPRPRPGFGPRP are within 0.2 log units of each other in “shrunken log2 fold change” value: -0.0725 for the first, -0.0613 for the second.

Going from RRIRVRPPRLPRPRPRPRHCPRP to RRIRNRPPRLPRPRPRPTRRPRP, the “shrunken log2 fold change” value rises from -0.383 to 0.805.

RRIRKRPPRLPRPRPRPPHNPRP and RRIRSRPPRLPRPRPRPLVWPRP are within 0.2 log units of each other in “shrunken log2 fold change” value: 0.465 for the first, 0.272 for the second.

Compared with RRIRDRPPRLPRPRPRPPREPRP, RRIRWRPPRLPRPRPRPEHYPRP is lower in “shrunken log2 fold change” value: 0.837 for the first, -1.14 for the second.

Going from RRIRARPPRLPRPRPRPHRIPRP to RRIRGRPPRLPRPRPRPGKAPRP, the “shrunken log2 fold change” value rises from -0.145 to 0.529.

Going from RRIRCRPPRLPRPRPRPGDRPRP to RRIRIRPPRLPRPRPRPYYNPRP, the “shrunken log2 fold change” value falls from 0.0429 to -0.679.

Going from RRIRDRPPRLPRPRPRPIEKPRP to RRIRIRPPRLPRPRPRPIWHPRP, the “shrunken log2 fold change” value falls from -0.0135 to -0.455.

First: RRIRARPPRLPRPRPRPYPKPRP
Second: RRIRYRPPRLPRPRPRPNFDPRP
The “shrunken log2 fold change” value of the first is higher: -0.149 for the first, -0.565 for the second.

Compared with RRIRRRPPRLPRPRPRPVLLPRP, RRIRTRPPRLPRPRPRPYDQPRP is lower in “shrunken log2 fold change” value: 0.103 for the first, -0.241 for the second.

Going from RRIRHRPPRLPRPRPRPTCTPRP to RRIRWRPPRLPRPRPRPKKKPRP, the “shrunken log2 fold change” value falls from 0.141 to -0.139.

RRIRVRPPRLPRPRPRPCRDPRP and RRIRTRPPRLPRPRPRPLKNPRP are within 0.2 log units of each other in “shrunken log2 fold change” value: -0.4 for the first, -0.397 for the second.

RRIRSRPPRLPRPRPRPRAFPRP and RRIRWRPPRLPRPRPRPQLQPRP are within 0.2 log units of each other in “shrunken log2 fold change” value: 0.304 for the first, 0.229 for the second.

Compared with RRIRRRPPRLPRPRPRPGLFPRP, RRIRDRPPRLPRPRPRPASAPRP is higher in “shrunken log2 fold change” value: 0.389 for the first, 0.616 for the second.

Compared with RRIRMRPPRLPRPRPRPWATPRP, RRIRIRPPRLPRPRPRPGYNPRP is lower in “shrunken log2 fold change” value: 0.194 for the first, -1.28 for the second.

First: RRIRGRPPRLPRPRPRPRFGPRP
Second: RRIRSRPPRLPRPRPRPIPDPRP
The “shrunken log2 fold change” value of the first is higher: 0.662 for the first, -0.0495 for the second.

Going from RRIRVRPPRLPRPRPRPLSSPRP to RRIRSRPPRLPRPRPRPYTQPRP, the “shrunken log2 fold change” value falls from 0.0511 to -0.184.

RRIRVRPPRLPRPRPRPGTWPRP and RRIRERPPRLPRPRPRPVWQPRP are within 0.2 log units of each other in “shrunken log2 fold change” value: -0.0352 for the first, 0.123 for the second.

Going from RRIRHRPPRLPRPRPRPYHNPRP to RRIRMRPPRLPRPRPRPSAHPRP, the “shrunken log2 fold change” value rises from -0.853 to 0.423.

Going from RRIRNRPPRLPRPRPRPIFTPRP to RRIRTRPPRLPRPRPRPFSGPRP, the “shrunken log2 fold change” value rises from -0.424 to -0.0204.

RRIRPRPPRLPRPRPRPWDAPRP and RRIRLRPPRLPRPRPRPPYLPRP are within 0.2 log units of each other in “shrunken log2 fold change” value: 0.0508 for the first, -0.0206 for the second.

RRIRARPPRLPRPRPRPCHYPRP and RRIRKRPPRLPRPRPRPGQNPRP are within 0.2 log units of each other in “shrunken log2 fold change” value: -0.00197 for the first, 0.0264 for the second.

First: RRIRRRPPRLPRPRPRPRDAPRP
Second: RRIRPRPPRLPRPRPRPSHPPRP
The “shrunken log2 fold change” value of the first is higher: 0.736 for the first, -0.03 for the second.

First: RRIRKRPPRLPRPRPRPFMKPRP
Second: RRIRPRPPRLPRPRPRPYFEPRP
The “shrunken log2 fold change” value of the first is higher: -0.157 for the first, -0.633 for the second.

Going from RRIRYRPPRLPRPRPRPSHHPRP to RRIRHRPPRLPRPRPRPGPDPRP, the “shrunken log2 fold change” value rises from -1.2 to -0.227.

Going from RRIRGRPPRLPRPRPRPPSSPRP to RRIRNRPPRLPRPRPRPKILPRP, the “shrunken log2 fold change” value falls from 0.703 to 0.0428.

Compared with RRIRRRPPRLPRPRPRPYLLPRP, RRIRNRPPRLPRPRPRPIYFPRP is lower in “shrunken log2 fold change” value: -0.263 for the first, -0.767 for the second.

First: RRIRGRPPRLPRPRPRPGDDPRP
Second: RRIRSRPPRLPRPRPRPSLWPRP
The “shrunken log2 fold change” value of the first is higher: 0.911 for the first, 0.122 for the second.

RRIRFRPPRLPRPRPRPTVRPRP and RRIRERPPRLPRPRPRPAAKPRP are within 0.2 log units of each other in “shrunken log2 fold change” value: 0.0843 for the first, 0.0307 for the second.

RRIRERPPRLPRPRPRPDCVPRP and RRIRCRPPRLPRPRPRPDNRPRP are within 0.2 log units of each other in “shrunken log2 fold change” value: -0.191 for the first, -0.132 for the second.

RRIRNRPPRLPRPRPRPPMKPRP and RRIRMRPPRLPRPRPRPFPGPRP are within 0.2 log units of each other in “shrunken log2 fold change” value: -0.216 for the first, -0.0808 for the second.

RRIRDRPPRLPRPRPRPHFKPRP and RRIRLRPPRLPRPRPRPMIDPRP are within 0.2 log units of each other in “shrunken log2 fold change” value: -0.148 for the first, -0.0169 for the second.

Compared with RRIRWRPPRLPRPRPRPLGKPRP, RRIRFRPPRLPRPRPRPQVMPRP is lower in “shrunken log2 fold change” value: 0.136 for the first, -0.265 for the second.

Compared with RRIRKRPPRLPRPRPRPSQTPRP, RRIRFRPPRLPRPRPRPWSCPRP is lower in “shrunken log2 fold change” value: 0.026 for the first, -0.175 for the second.

RRIRKRPPRLPRPRPRPTVLPRP and RRIRQRPPRLPRPRPRPMVQPRP are within 0.2 log units of each other in “shrunken log2 fold change” value: 0.0143 for the first, -0.00171 for the second.

Going from RRIRHRPPRLPRPRPRPKADPRP to RRIRYRPPRLPRPRPRPGQLPRP, the “shrunken log2 fold change” value falls from 0.117 to -0.284.

RRIRLRPPRLPRPRPRPAVYPRP and RRIRWRPPRLPRPRPRPRVFPRP are within 0.2 log units of each other in “shrunken log2 fold change” value: 0.00171 for the first, 0.186 for the second.

RRIRQRPPRLPRPRPRPAMIPRP and RRIRSRPPRLPRPRPRPVTGPRP are within 0.2 log units of each other in “shrunken log2 fold change” value: 0.103 for the first, 0.255 for the second.

First: RRIRFRPPRLPRPRPRPWMYPRP
Second: RRIRQRPPRLPRPRPRPGMWPRP
The “shrunken log2 fold change” value of the first is lower: -0.673 for the first, 0.191 for the second.

RRIRNRPPRLPRPRPRPWVDPRP and RRIRWRPPRLPRPRPRPLISPRP are within 0.2 log units of each other in “shrunken log2 fold change” value: -0.00748 for the first, -0.0451 for the second.

Going from RRIRLRPPRLPRPRPRPYNQPRP to RRIRNRPPRLPRPRPRPPHRPRP, the “shrunken log2 fold change” value rises from -0.693 to 0.00305.

RRIRARPPRLPRPRPRPEDDPRP and RRIRNRPPRLPRPRPRPALLPRP are within 0.2 log units of each other in “shrunken log2 fold change” value: 0.306 for the first, 0.504 for the second.

RRIRARPPRLPRPRPRPYIDPRP and RRIRSRPPRLPRPRPRPNSCPRP are within 0.2 log units of each other in “shrunken log2 fold change” value: -0.186 for the first, -0.121 for the second.

RRIRKRPPRLPRPRPRPMTAPRP and RRIRGRPPRLPRPRPRPPSTPRP are within 0.2 log units of each other in “shrunken log2 fold change” value: 0.832 for the first, 0.643 for the second.

Compared with RRIRTRPPRLPRPRPRPNTWPRP, RRIRQRPPRLPRPRPRPAPRPRP is higher in “shrunken log2 fold change” value: -0.178 for the first, 0.966 for the second.

Going from RRIRPRPPRLPRPRPRPVEQPRP to RRIRPRPPRLPRPRPRPCWIPRP, the “shrunken log2 fold change” value falls from 0.239 to -0.456.

Compared with RRIRDRPPRLPRPRPRPLEWPRP, RRIRFRPPRLPRPRPRPGCQPRP is lower in “shrunken log2 fold change” value: 0.421 for the first, -0.157 for the second.

RRIRQRPPRLPRPRPRPTNFPRP and RRIRSRPPRLPRPRPRPKLYPRP are within 0.2 log units of each other in “shrunken log2 fold change” value: -0.159 for the first, -0.199 for the second.

RRIRSRPPRLPRPRPRPRLWPRP and RRIRMRPPRLPRPRPRPTKTPRP are within 0.2 log units of each other in “shrunken log2 fold change” value: 0.397 for the first, 0.334 for the second.

With RRIRTRPPRLPRPRPRPTRQPRP the “shrunken log2 fold change” value was 0.112.
